Columns and labels:
HeLa Kyoto [1] = assay: solubility change mitosis vs G1/S (difference of NP-40 vs SDS log2 ratios) (log2 ratio difference); higher = more soluble in mitosis
HeLa Kyoto [2] = assay: solubility in G1/S (NP-40 vs SDS abundance) (log2 ratio); higher = more soluble; details: cell cycle stage: G1/S
HeLa Kyoto [3] = assay: thermal stability score vs G1/S (z-score of summed log2 fold changes over temperatures); higher = more thermally stable than in G1/S
HeLa Kyoto [4] = assay: melting temperature (median over replicates), in situ; higher = more thermally stable
[5] = cell cycle stage: early G1 (4.5 h after nocodazole release)
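Wherever melting temperature (median over replicates), in situ is given: HeLa Kyoto cells synchronized by double thymidine or nocodazole block, proteins quantified by TMT10plex mass spectrometry, three independent biological replicates.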
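Wherever solubility change mitosis vs G1/S (difference of NP-40 vs SDS log2 ratios) is given: synchronized HeLa Kyoto cells (double thymidine block for G1/S, nocodazole release for mitosis), protein amounts in NP-40 versus SDS lysates quantified by mass spectrometry, three biological replicates.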
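Wherever solubility in G1/S (NP-40 vs SDS abundance) is given: HeLa Kyoto cells arrested at G1/S by double thymidine block, proteins quantified by TMT10plex mass spectrometry in mild NP-40 versus SDS extracts, three biological replicates.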
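Wherever thermal stability score vs G1/S (z-score of summed log2 fold changes over temperatures) is given: synchronized HeLa Kyoto cells, proteins quantified by TMT10plex mass spectrometry, three biological replicates, mitosis taken 0.5 h after nocodazole release, G1/S directly after double thymidine block.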

Sequence	solubility change mitosis (log2) (HeLa Kyoto [1])	solubility in G1/S (log2) (HeLa Kyoto [2])	thermal stability score (HeLa Kyoto [3]; [5])	thermal stability score (HeLa Kyoto [3]; cell cycle stage: mitosis)	melting temperature (HeLa Kyoto [4]; cell cycle stage: G1/S)	melting temperature (HeLa Kyoto [4]; cell cycle stage: mitosis)
MAMMVFPREEKLSQDEIVLGTKAVIQGLETLRGEHRALLAPLVAPEAGEAEPGSQERCILLRRSLEAIELGLGEAQVILALSSHLGAVESEKQKLRAQVRRLVQENQWLREELAGTQQKLQRSEQAVAQLEEEKQHLLFMSQIRKLDEDASPNEEKGDVPKDTLDDLFPNEDEQSPAPSPGGGDVSGQHGGYEIPARLRTLHNLVIQYASQGRYEVAVPLCKQALEDLEKTSGHDHPDVATMLNILALVYRDQNKYKEAAHLLNDALAIREKTLGKDHPAVAATLNNLAVLYGKRGKYKEAEPLCKRALEIREKVLGKFHPDVAKQLSNLALLCQNQGKAEEVEYYYRRALEIYATRLGPDDPNVAKTKNNLASCYLKQGKYQDAETLYKEILTRAHEKEFGSVNGDNKPIWMHAEEREESKDKRRDSAPYGEYGSWYKACKVDSPTVNTTLRSLGALYRRQGKLEAAHTLEDCASRNRKQGLDPASQTKVVELLKDGSGRRGDRRSSRDMAGGAGPRSESDLEDVGPTAEWNGDGSGSLRRSGSFGKLRDALRRSSEMLVKKLQGGTPQEPPNPRMKRASSLNFLNKSVEEPTQPGGTGLSDSRTLSSSSMDLSRRSSLVG [KLC2]	0.0405	0.526	0.627	1.01	50 °C	50.1 °C
MEGLAGYVYKAASEGKVLTLAALLLNRSESDIRYLLGYVSQQGGQRSTPLIIAARNGHAKVVRLLLEHYRVQTQQTGTVRFDGYVIDGATALWCAAGAGHFEVVKLLVSHGANVNHTTVTNSTPLRAACFDGRLDIVKYLVENNANISIANKYDNTCLMIAAYKGHTDVVRYLLEQRADPNAKAHCGATALHFAAEAGHIDIVKELIKWRAAIVVNGHGMTPLKVAAESCKADVVELLLSHADCDRRSRIEALELLGASFANDRENYDIIKTYHYLYLAMLERFQDGDNILEKEVLPPIHAYGNRTECRNPQELESIRQDRDALHMEGLIVRERILGADNIDVSHPIIYRGAVYADNMEFEQCIKLWLHALHLRQKGNRNTHKDLLRFAQVFSQMIHLNETVKAPDIECVLRCSVLEIEQSMNRVKNISDADVHNAMDNYECNLYTFLYLVCISTKTQCSEEDQCKINKQIYNLIHLDPRTREGFTLLHLAVNSNTPVDDFHTNDVCSFPNALVTKLLLDCGAEVNAVDNEGNSALHIIVQYNRPISDFLTLHSIIISLVEAGAHTDMTNKQNKTPLDKSTTGVSEILLKTQMKMSLKCLAARAVRANDINYQDQIPRTLEEFVGFH [FEM1B]	-0.0104	-0.0515	0.363	-1.04	53.5 °C	52.2 °C
MAPKKRPETQKTSEIVLRPRNKRSRSPLELEPEAKKLCAKGSGPSRRCDSDCLWVGLAGPQILPPCRSIVRTLHQHKLGRASWPSVQQGLQQSFLHTLDSYRILQKAAPFDRRATSLAWHPTHPSTVAVGSKGGDIMLWNFGIKDKPTFIKGIGAGGSITGLKFNPLNTNQFYASSMEGTTRLQDFKGNILRVFASSDTINIWFCSLDVSASSRMVVTGDNVGNVILLNMDGKELWNLRMHKKKVTHVALNPCCDWFLATASVDQTVKIWDLRQVRGKASFLYSLPHRHPVNAACFSPDGARLLTTDQKSEIRVYSASQWDCPLGLIPHPHRHFQHLTPIKAAWHPRYNLIVVGRYPDPNFKSCTPYELRTIDVFDGNSGKMMCQLYDPESSGISSLNEFNPMGDTLASAMGYHILIWSQEEARTRK [DDB2]	-0.078	-0.0537	-1.8	-2.6	55.7 °C	56.7 °C
MLRPAGLWRLCRRPWAARVPAENLGRREVTSGVSPRGSTSPRTLNIFDRDLKRKQKNWAARQPEPTKFDYLKEEVGSRIADRVYDIPRNFPLALDLGCGRGYIAQYLNKETIGKFFQADIAENALKNSSETEIPTVSVLADEEFLPFKENTFDLVVSSLSLHWVNDLPRALEQIHYILKPDGVFIGAMFGGDTLYELRCSLQLAETEREGGFSPHISPFTAVNDLGHLLGRAGFNTLTVDTDEIQVNYPGMFELMEDLQGMGESNCAWNRKALLHRDTMLAAAAVYREMYRNEDGSVPATYQIYYMIGWKYHESQARPAERGSATVSFGELGKINNLMPPGKKSQ [NDUFAF5]	-0.0552	0.329	0.357	0.191	53.5 °C	53.4 °C
MPSKSLVMEYLAHPSTLGLAVGVACGMCLGWSLRVCFGMLPKSKTSKTHTDTESEASILGDSGEYKMILVVRNDLKMGKGKVAAQCSHAAVSAYKQIQRRNPEMLKQWEYCGQPKVVVKAPDEETLIALLAHAKMLGLTVSLIQDAGRTQIAPGSQTVLGIGPGPADLIDKVTGHLKLY [PTRH2]	0.0782	0.447	-0.625	-2.48	52.3 °C	52.6 °C
MAATLDLKSKEEKDAELDKRIEALRRKNEALIRRYQEIEEDRKKAELEGVAVTAPRKGRSVEKENVAVESEKNLGPSRRSPGTPRPPGASKGGRTPPQQGGRAGMGRASRSWEGSPGEQPRGGGAGGRGRRGRGRGSPHLSGAGDTSISDRKSKEWEERRRQNIEKMNEEMEKIAEYERNQREGVLEPNPVRNFLDDPRRRSGPLEESERDRREESRRHGRNWGGPDFERVRCGLEHERQGRRAGLGSAGDMTLSMTGRERSEYLRWKQEREKIDQERLQRHRKPTGQWRREWDAEKTDGMFKDGPVPAHEPSHRYDDQAWARPPKPPTFGEFLSQHKAEASSRRRRKSSRPQAKAAPRAYSDHDDRWETKEGAASPAPETPQPTSPETSPKETPMQPPEIPAPAHRPPEDEGEENEGEEDEEWEDISEDEEEEEIEVEEGDEEEPAQDHQAPEAAPTGIPCSEQAHGVPFSPEEPLLEPQAPGTPSSPFSPPSGHQPVSDWGEEVELNSPRTTHLAGALSPGEAWPFESV [CCDC9]	0.231	-0.239	3.28	2.57	56.3 °C	56.3 °C
MRPLTEEETRVMFEKIAKYIGENLQLLVDRPDGTYCFRLHNDRVYYVSEKIMKLAANISGDKLVSLGTCFGKFTKTHKFRLHVTALDYLAPYAKYKVWIKPGAEQSFLYGNHVLKSGLGRITENTSQYQGVVVYSMADIPLGFGVAAKSTQDCRKVDPMAIVVFHQADIGEYVRHEETLT [NIP7]	0.622	-1.97	-2	-2.49	55.5 °C	53.8 °C

— the supplement of paper PMC5998384
